{"source": "paper PMC10144703", "about": "“Molecular Mechanism of Sirtuin 1 Inhibition by Human Immunodeficiency Virus 1 Tat Protein” (Life, 2023)", "molecules": {"B1": {"name": "Tat-Cys^−: Recombinant 86-residue HIV1 Zaire 2 Tat with C22S, C25A, C27A, C30S, C31A, C34S, and C37A (protein)", "chain": "MDPVDPNIEPWNHPGSQPKTASNRAHAKKSAYHSQVAFITKGLGISYGRKKRRQRRRPSQGGQTHQDPIPKQPSSQPRGDPTGPKE"}}, "key": {"[1]": {"target": "T1, human full-length Sirt1 (fl-Sirt1) (Homo sapiens, UniProt Q96EB6)", "T1 construct": "human full-length Sirt1 (fl-Sirt1) in pET-15b; made in house; host or cells: E. coli CodonPlus(DE3)", "T1 sequence (Q96EB6 1-747)": "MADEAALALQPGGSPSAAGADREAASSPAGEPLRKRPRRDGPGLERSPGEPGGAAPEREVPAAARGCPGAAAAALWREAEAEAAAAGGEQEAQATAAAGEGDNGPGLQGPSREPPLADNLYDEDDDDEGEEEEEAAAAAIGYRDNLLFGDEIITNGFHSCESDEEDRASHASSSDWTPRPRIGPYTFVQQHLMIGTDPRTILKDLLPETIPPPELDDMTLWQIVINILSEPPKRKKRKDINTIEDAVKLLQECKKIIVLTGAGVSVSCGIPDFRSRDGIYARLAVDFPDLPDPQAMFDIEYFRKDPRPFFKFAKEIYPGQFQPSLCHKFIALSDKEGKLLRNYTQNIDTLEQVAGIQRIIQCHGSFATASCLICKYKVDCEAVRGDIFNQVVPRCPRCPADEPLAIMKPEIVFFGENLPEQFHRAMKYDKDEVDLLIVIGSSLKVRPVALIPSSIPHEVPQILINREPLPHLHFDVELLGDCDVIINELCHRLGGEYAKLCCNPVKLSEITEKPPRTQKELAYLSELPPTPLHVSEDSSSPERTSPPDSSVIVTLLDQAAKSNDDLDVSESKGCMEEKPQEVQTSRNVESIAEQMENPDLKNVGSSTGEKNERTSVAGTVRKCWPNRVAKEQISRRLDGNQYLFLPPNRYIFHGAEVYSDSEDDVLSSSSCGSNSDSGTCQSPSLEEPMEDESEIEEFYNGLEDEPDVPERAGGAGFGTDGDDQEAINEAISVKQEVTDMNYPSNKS", "assay": "FdL deacetylation assay, fl-Sirt1", "format": "biochemical", "conditions": "Figure 1D,E; compared with Sirt2 and Sirt3", "source_text": "A human mini-Sirt1 construct (aa 183-505-(GGGS)2-641-665), as described in [27], was generated in a modified pET-19b with a TEV cleavage site. This construct and human full-length Sirt1 (fl-Sirt1) in pET-15b, Sirt1-(183-664) and Sirt1-(214-664) in pET-15b, mini-Sirt1-∆SBD (aa 214-505-(GGGS)2-641-665) and mini-Sirt1-∆ESA (aa 183–505) in a modified pET-19b with TEV cleavage site, Sirt2-(43-356) in a modified pET-19b with a His6-Sumo tag, Sirt3-(93-399) in a modified pET-32a with Trx-His6 tag and TEV cleavage site, hSirt3-(118-399) in pVFT3S (Sungkyunkwan University, Seoul, Republic of Korea) with His6-Trx tag and TEV cleavage site, Sirt5-(34-302) in pET-151/D-TOPO, and Sirt6-(1-355) in pQE80L.1 were purified as described. Shortly, proteins were expressed at 20 °C (mini-Sirt1 constructs at 16 °C) in E. coli CodonPlus(DE3), cell lysates were cleared by centrifugation, and proteins were purified via affinity chromatography using a nickel NTA column. After digestion with thrombin or TEV protease, proteins were re-run over the nickel NTA column, pooled, and concentrated. The samples were, then, subjected either directly to size exclusion chromatography in 50 mM Tris/HCl, pH 8.0, 150 mM NaCl, 1 mM TCEP, or to an ion exchange chromatography followed by size exclusion chromatography. […]"}, "mini-Sirt1": {"target": "T2, mini-Sirt1 (Homo sapiens, UniProt Q96EB6)", "T2 construct": "aa 183-505-(GGGS)2-641-665; made in house; host or cells: E. coli CodonPlus(DE3)", "T2 sequence (Q96EB6 with tags, fused parts or gaps limits assumed)": "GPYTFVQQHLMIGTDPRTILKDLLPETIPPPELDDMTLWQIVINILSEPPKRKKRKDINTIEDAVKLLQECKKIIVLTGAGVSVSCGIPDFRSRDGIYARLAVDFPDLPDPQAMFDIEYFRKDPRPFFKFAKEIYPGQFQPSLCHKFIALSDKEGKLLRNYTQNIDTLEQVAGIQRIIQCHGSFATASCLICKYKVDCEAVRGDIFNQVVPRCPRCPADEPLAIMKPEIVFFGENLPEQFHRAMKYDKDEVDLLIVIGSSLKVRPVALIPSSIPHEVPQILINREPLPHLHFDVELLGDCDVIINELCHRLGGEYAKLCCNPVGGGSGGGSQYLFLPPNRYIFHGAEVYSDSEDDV", "assay": "2D-(1H, 15N)-HSQC NMR titration of Tat-Cys^− with mini-Sirt1", "format": "binding", "conditions": "58 µM Tat-Cys^−, 2-fold molar excess mini-Sirt1, pH 6.4, 298 K", "protocol": "NMR titration experiments were performed by stepwise addition of unlabeled mini-Sirt1 (stock concentration 260 µM) to 100 µM ^15N-labeled Tat-Cys^− in 150 mM sodium chloride, and 10 mM potassium phosphate (pH 6.4). Spectra for 2D-(^1H, ^15N)-HSQC NMR were recorded at 298 K on a Bruker 700 MHz spectrometer equipped with a cryogenically-cooled probe."}, "[2]": {"test_system": "mini-Sirt1-∆ESA (aa 183–505)", "assay": "Inhibition of mini-Sirt1-∆ESA (ac-p53 substrate)", "format": "biochemical, human", "conditions": "dose-dependent, 100 µM ac-p53, n = 3; relative to mini-Sirt1", "source_text": "A human mini-Sirt1 construct (aa 183-505-(GGGS)2-641-665), as described in [27], was generated in a modified pET-19b with a TEV cleavage site. This construct and human full-length Sirt1 (fl-Sirt1) in pET-15b, Sirt1-(183-664) and Sirt1-(214-664) in pET-15b, mini-Sirt1-∆SBD (aa 214-505-(GGGS)2-641-665) and mini-Sirt1-∆ESA (aa 183–505) in a modified pET-19b with TEV cleavage site, Sirt2-(43-356) in a modified pET-19b with a His6-Sumo tag, Sirt3-(93-399) in a modified pET-32a with Trx-His6 tag and TEV cleavage site, hSirt3-(118-399) in pVFT3S (Sungkyunkwan University, Seoul, Republic of Korea) with His6-Trx tag and TEV cleavage site, Sirt5-(34-302) in pET-151/D-TOPO, and Sirt6-(1-355) in pQE80L.1 were purified as described. […]\nContinuous coupled enzymatic sirtuin activity assays were conducted as described. […] Reactions were monitored for 1 h at room temperature by absorption spectroscopy at 340 nm in a UV/vis plate reader (BioTek). The slope for the linear range (typically 5–25 min) was evaluated after background correction with measurements without NAD^+. Additional control reactions were run by either omitting enzyme or omitting peptide substrate to ensure that the signal measured reflects the NAD+-dependent deacetylation activity of the sirtuin."}}, "data": [{"molecule": "B1", "values": [{"measurement": "relative isoform inhibition, Sirt1 vs other isoforms", "setting": "[1]", "result": "slightly more potent inhibition of this isoform"}, {"measurement": "HSQC signal changes on mini-Sirt1 addition", "setting": "mini-Sirt1", "result": "a large number of HSQC signals to disappear"}, {"measurement": "HSQC signals unchanged on mini-Sirt1 addition", "setting": "mini-Sirt1", "result": "mostly to Tat residues 63–87"}, {"measurement": "inhibitory effects, mini-Sirt1-∆ESA", "setting": "[2]", "result": "unchanged inhibitory effects"}]}]}
